Experimental findings from paper PMC10213515 are described below.

The test deals with FtsZ (UniProt P0A9A6). The experiment in a line: PL recruitment assay (SUV co-sedimentation by low-speed centrifugation, SDS-PAGE). To be noted: FtsZ 3 μM, GTP 2 mM, FtsA wild type or mutant 2.5 μM, SUVs 250 μg ml-1, ATP 4 mM; parent: 93.7.
Sequence of UniProt P0A9A6 (P0A9A6 whole entry): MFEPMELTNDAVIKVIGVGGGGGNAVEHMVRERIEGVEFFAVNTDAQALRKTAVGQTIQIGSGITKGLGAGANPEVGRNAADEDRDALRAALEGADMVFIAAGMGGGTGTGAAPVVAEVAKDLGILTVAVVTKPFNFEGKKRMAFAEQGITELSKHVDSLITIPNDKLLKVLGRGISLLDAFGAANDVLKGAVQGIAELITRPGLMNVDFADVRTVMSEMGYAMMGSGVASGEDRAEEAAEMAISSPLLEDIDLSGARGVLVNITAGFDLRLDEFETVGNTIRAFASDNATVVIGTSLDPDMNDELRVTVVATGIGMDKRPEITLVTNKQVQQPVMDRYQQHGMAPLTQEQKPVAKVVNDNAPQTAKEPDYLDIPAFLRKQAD
On to “FtsA wild type (from UniProt P0ABH0) A188V”, for which the response is 95.3 % of total.
Take “FtsA wild type (from UniProt P0ABH0) E14R”: the response is 83.8 % of total.
For “FtsA wild type (from UniProt P0ABH0) S84L”, the response is 97.2 % of total.
The same measure for “FtsA wild type (from UniProt P0ABH0) Y375A”: 41.1 % of total.
